# Experimental data as given in US20060281899A1, “Mutants of biotin binding protein” (priority 2002, published 2006).
# B1: AVR4/5: Recombinant chicken avidin-related protein 4/5 (AVR4 and AVR5 identical in coding sequence) (protein, UniProt P56734 25-150, looked up)
# Avidin-related protein 4/5: ARKCSLTGKWTNNLGSIMTIRAVNSRGEFTGTYLTAVADNPGNITLSPLLGIQHKRASQPTFGFTVHWNFSESTTVFTGQCFIDRNGKEVLKTMWLLRSSVNDISYDWKATRVGYNNFTRLCTVEE
# Assays:
# Format in all cases: physicochemical
# [1] = test system: biotinylated alkaline phosphatase; experiment: Microtiter plate assay, biotin-binding activity after heat treatment at 99.9° C.; conditions: 99.9° C. for various time periods
# Description: Reversibility of biotin binding was measured for avidin and the mutants with an IAsys optical biosensor (Laitinen, O. H. et al., FEBS Lett 461 (1999), 52-8). Protein samples were allowed to bind to a biotin-aminosilane cuvette in PBS containing 1 M NaCl. After the equilibrium was reached, biotin-containing buffer was added and the dissociation of the proteins was monitored. The affinities of the proteins towards 2-iminobiotin were determined with an IAsys optical biosensor (Marttila, A. T. et al. FEBS Lett 441 (1998), 313-7). Biotin-binding activity of the mutants Avd-ci and Avd-ccci after heat treatment was studied with a microtiter plate assay. Protein samples, 5 μg/ml concentration in PBS, were heated for various time periods at 99.9° C. and then chilled on ice. The samples were transferred to a Nunc Maxisorp-plate and incubated at 37° C. for 2 h. The wells were washed three times with PBS-Tween (0.05% v/v). […] The absorbances at 405 nm were measured after incubation for 45 minutes.
# Biotin-binding activity of the proteins after heat treatment was studied with a microtiter plate assay (Nordlund, H. R., Laitinen, O. H., Uotila, S. T., Nyholm, T., Hytönen, V. P., Slotte, J. P. & Kulomaa, M. S. (2003) J. Biol. Chem. 278, 2479-2483). […] The absorbencies at 405 nm were measured after incubation for 45 minutes.
# [2] = Non-reducing SDS-PAGE thermostability, oligomeric forms after boiling; conditions: boiled 20 minutes
# Description: (§1) The heat stability of the AVRs was studied by using an SDS-PAGE-based method (Bayer, E. A., Ehrlich-Rogozinski, S. and Wilchek, M. (1996) Electrophoresis 17, 1319-1324). In this method, each protein sample was divided into two fractions one of which was kept biotin-free and the other was supplemented with an excess of biotin. The samples were then mixed with denaturing SDS-PAGE sample buffer (containing β-mercaptoethanol) and incubated at a given temperature for 20 minutes. After heat treatment, the samples were subjected to SDS-PAGE and visualised by staining with Coomassie brilliant blue. The relative proportions of tetrameric and monomeric forms of the AVR proteins (with avidin as the control) were detected. A similar assay, with β-mercaptoethanol omitted from the sample buffer, was performed to examine the presence of intersubunit disulfide-bridges. Sensitivity to proteinase K was studied both in the absence and in the presence of biotin as described (Laitinen, O. H., Airenne, K. J., Marttila, A. T., Kulik, T., Porkka, E., Bayer, E. A., Wilchek, M. and Kulomaa, M. S. (1999) FEBS Lett. 461, 52-8). The isoelectric point of each AVR was determined by isoelectric focusing as previously reported (Marttila, A. T., Airenne, K. J., Laitinen, O. H., Kulik, T., Bayer, E. A., Wilchek, M. and Kulomaa, M. S. (1998) FEBS Lett. 441, 313-317). The glycosylation patterns of the AVR proteins were studied by treating the proteins with Endo Hf and PNGase F glycosidase according to the manufacturer's instructions (New England Biolabs, Mass., USA).
# Isoelectric focusing = experiment: Isoelectric focusing
# Description: as §1
# [3] = Differential scanning calorimetry of avidin and AVR4/5 forms
# Description: The thermodynamics of the heat-induced unfolding of the proteins were studied using DSC. The transition midpoint of heat-induced denaturation (Tm) of the avidin and different AVR4/5 forms was studied using a Nano II differential scanning calorimeter (Calorimetric Sciences Corporation, Provo, Utah, USA). The reference cell was filled with buffer whereas the sample cell was filled with proteins dissolved in 50 mM sodium phosphate buffer, pH 7.0 containing 100 mM NaCl. Avidin and AVR4/5(C124S) were also analyzed in 50 mM Na-acetate pH 4.0 containing 100 mM NaCl. Furthermore, AVR4/5 was analyzed in the presence of 2-mercaptoethanol (0.4% v/v). The samples (1.6-9.6 μM) were analyzed both in the absence and presence of a three fold molar excess of biotin/subunit. All samples were degassed before being loaded into the DSC. The thermograms were recorded as a function of temperature; between 25 and 130° C. at a rate of 55.6° C./h (Gonzalez, M., Argarana, C. E. & Fidelio, G. D. (1999) Biomol. Eng. 16, 67-72; Nordlund, H. R., Laitinen, O. H., Uotila, S. T., Nyholm, T., Hytönen, V. P., Slotte, J. P. & Kulomaa, M. S. (2003) J. Biol. Chem. 278, 2479-2483). Data was analyzed using Microcal Origin 6.0 and Cpcalc 2.1 (Applied Thermodynamics, Hunt Valley, Md.). The change in heat capacity upon unfolding (ΔCp) was measured for avidin and AVR4/5(C124S) using DSC data from measurements in pH 4.0 and 7.0. ΔCp was then obtained from the slope of ΔH vs. Tm (Liu, Y. & Sturtevant, J. M. (1996) Biochemistry 35, 3059-3062).
molecule,measurement,setting,value
B1,biotin-binding activity after heat treatment,[1],superior stability against boiling
same,"Dimeric form, relative proportion",[2],50 percentage
same,"Monomeric form, relative proportion",[2],50 percentage
same,pI by isoelectric focusing,Isoelectric focusing,≈ 10
same,DSC Tm(−biotin),"[3]; 50 mM sodium phosphate pH 7.0, 100 mM NaCl",107.4 ± 0.3 °C
same,ΔTm,[3]; change in Tm upon addition of a three-fold molar excess of biotin,17.3 °C
same,ΔH of unfolding,[3]; sample without biotin,194 ± 33.5 kcal/mol
same,DSC Tm (+biotin),"[3]; three-fold molar excess of biotin, pH 7.0",124.7 ± 0.3 °C
